Measurements: patent US20030082187A1

Tests used:
[1] = biological target: murine VCAM-1 (vascular endothelial adhesion molecule-1) (murine) (UniProt P29533); assay: cell-based or functional assay
[2] = biological target: murine VCAM-1 (vascular endothelial adhesion molecule-1) (murine) (UniProt P29533); assay: bEnd.3 cells, unstimulated against IL-1α-stimulated

UniProt P29533, sequence (P29533 25-739): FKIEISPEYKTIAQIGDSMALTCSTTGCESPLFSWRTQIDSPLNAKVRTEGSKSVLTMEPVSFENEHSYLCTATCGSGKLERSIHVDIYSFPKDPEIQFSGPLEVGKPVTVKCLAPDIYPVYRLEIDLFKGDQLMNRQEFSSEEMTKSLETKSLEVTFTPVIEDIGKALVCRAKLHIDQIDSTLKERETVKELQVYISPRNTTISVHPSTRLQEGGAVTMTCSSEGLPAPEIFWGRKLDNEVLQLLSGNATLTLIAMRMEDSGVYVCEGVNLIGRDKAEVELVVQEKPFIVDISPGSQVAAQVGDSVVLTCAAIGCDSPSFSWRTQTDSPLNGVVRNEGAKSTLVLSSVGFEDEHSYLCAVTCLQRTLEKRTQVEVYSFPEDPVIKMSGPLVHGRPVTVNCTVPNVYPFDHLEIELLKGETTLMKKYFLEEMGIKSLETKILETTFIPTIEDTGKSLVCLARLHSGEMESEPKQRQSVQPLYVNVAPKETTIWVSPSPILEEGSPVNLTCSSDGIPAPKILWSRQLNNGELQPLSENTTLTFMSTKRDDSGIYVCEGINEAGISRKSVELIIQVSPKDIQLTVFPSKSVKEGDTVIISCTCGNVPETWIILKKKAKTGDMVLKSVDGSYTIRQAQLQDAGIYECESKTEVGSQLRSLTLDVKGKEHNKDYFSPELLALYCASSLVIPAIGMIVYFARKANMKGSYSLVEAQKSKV

Row | Generation of Factor Xa (intact cells, IL-1α) (ng per 10^4 cells per 60 min) [1] | Generation of Factor Xa (intact cells, control/unstimulated) (ng per 10^4 cells per 60 min) [1] | Generation of Factor Xa (permeabilized cells, IL-1α) (ng per 10^4 cells per 60 min) [1] | Generation of Factor Xa (permeabilized cells, control/unstimulated) (ng per 10^4 cells per 60 min) [1] | percent lower amount bound to unstimulated versus stimulated cells [2] | Substance
1 | 3.17 | 1.64 | 98.8 | 49.2 | 50% | anti-VCAM-1·tTF coaguligand (MK2.7 anti-VCAM-1 IgG covalently linked to truncated tissue factor) (from UniProt P13726 33-251)
2 | – | 0.26 | – | 0.41 | – | control IgG·tTF (R187) coaguligand (from UniProt P13726 33-251)
3 | – | 0.26 | – | 0.39 | – | truncated tissue factor (tTF), unconjugated (from UniProt P13726 33-251)
